From paper PMC4666130 (Molecular Biology of the Cell, 2015)

Target: T1, claudin-19 (human CLDN19), expressed in HEK293 cells (human, UniProt Q8N6F1 1-224)
T1 sequence (looked up): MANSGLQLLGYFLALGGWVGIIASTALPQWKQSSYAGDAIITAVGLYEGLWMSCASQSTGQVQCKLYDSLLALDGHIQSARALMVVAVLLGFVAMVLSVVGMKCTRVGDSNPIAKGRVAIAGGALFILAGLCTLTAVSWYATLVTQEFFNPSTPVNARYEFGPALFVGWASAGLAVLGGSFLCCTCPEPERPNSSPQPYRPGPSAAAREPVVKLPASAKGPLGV
Experiment: cross-linking

stoichiometry N: 1 claudin-16 per claudin-19
B1: claudin-16 (human CLDN16), expressed in HEK293 cells (natural protein, UniProt Q9Y5I7 1-235, looked up)
chain: MRDLLQYIACFFAFFSAGFLIVATWTDCWMVNADDSLEVSTKCRGLWWECVTNAFDGIRTCDEYDSILAEHPLKLVVTRALMITADILAGFGFLTLLLGLDCVKFLPDEPYIKVRICFVAGATLLIAGTPGIIGSVWYAVDVYVERSTLVLHNIFLGIQYKFGWSCWLGMAGSLGCFLAGAVLTCCLYLFKDVGPERNYPYSLRKAYSAAGVSMAKSYSAPRTETAKMYAVDTRV
